We go through nine molecules from PMC11826918, “Generation of antagonistic biparatopic anti-CD30 antibody from an agonistic antibody by precise epitope determination and utilization of structural characteristics of CD30 molecule” (Antibody Therapeutics, 2025).

Positions count from the first letter of the chain named.

The target of assay [1] is T1, maltose-binding protein-fused CD30 (Homo sapiens, UniProt P28908-1).
T1 construct: signal peptide in the construct; human CD30 extracellular domains, residues 1-336; also called CD30-MBP; source: Expi293, purified (Ni-NTA, Superdex200); not shown: MBP, C-terminal, kept
The assay is described as follows: SPR; Biacore T200; cAb or BpAb captured on anti-human Fc (CM5), CD30-MBP flowed at 0, 2 and 20 nM (0, 20 and 200 nM for T426), contact 90 s, dissociation 300 s; 'at a rough level'. The conditions noted are these: both partners purified.

The next assay concerns the target T2, CD30 fused to rabbit Fc (Homo sapiens, UniProt P28908-1).
T2 construct: signal peptide in the construct; human CD30 whole extracellular domains, NP_001234.3 amino acids 1-383; also called CD30-rFc; source: HEK293T, transfected, harvested from the culture supernatant; not shown: hinge and Fc (rabbit IgG1), C-terminal, kept
The assay is described as follows: ELISA; mutual competition: indicator cAb (0.75 μg/mL) captured on goat anti-human IgG Fc; CD30-rFc (50 ng/mL) pre-incubated overnight at 4 °C with competitor cAb (2.8 μg/mL); bound CD30-rFc probed with anti-rabbit IgG. The settings on record: one partner purified.

T1 sequence (P28908 19-336): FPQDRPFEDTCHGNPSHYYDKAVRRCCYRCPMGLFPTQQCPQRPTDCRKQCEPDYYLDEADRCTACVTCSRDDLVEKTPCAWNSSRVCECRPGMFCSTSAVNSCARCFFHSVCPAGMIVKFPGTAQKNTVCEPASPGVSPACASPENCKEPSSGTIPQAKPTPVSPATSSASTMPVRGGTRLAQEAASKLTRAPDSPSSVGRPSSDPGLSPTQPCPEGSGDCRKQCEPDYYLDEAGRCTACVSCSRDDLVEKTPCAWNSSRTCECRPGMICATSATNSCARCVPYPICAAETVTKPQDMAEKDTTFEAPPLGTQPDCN
T2 sequence (P28908 19-383): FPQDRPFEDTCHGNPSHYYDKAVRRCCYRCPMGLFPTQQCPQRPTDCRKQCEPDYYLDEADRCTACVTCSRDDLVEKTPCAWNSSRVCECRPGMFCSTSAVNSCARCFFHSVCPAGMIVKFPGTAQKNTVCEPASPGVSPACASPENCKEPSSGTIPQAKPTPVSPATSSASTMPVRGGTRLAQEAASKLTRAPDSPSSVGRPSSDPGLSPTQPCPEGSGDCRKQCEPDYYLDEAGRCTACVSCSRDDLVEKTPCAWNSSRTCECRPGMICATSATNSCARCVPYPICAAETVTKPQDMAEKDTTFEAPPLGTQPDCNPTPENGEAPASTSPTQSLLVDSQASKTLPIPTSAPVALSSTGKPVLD

B1: T427 cAb (antibody, V domains shown)
VH: QVQLQQPGTELVRPGASVKLSCKASGFSFTSYWMNWVKQRPGQGLEWIGMIHPSDSETRLNQKFKDRATLTVDKSSSTAYMQLSSPTSEDSAVYYCASEMDYYFAMDYWGQGTSVTVSS
VL: DIVLTQSPTSLAVSLGQRATISCRASESVDSYGNSFMHWFQQKPGQPPKLLIYRASNLESGIPARFSGSGSWTDFTLTINPVEADDVATYYCQQSNEDPRTFGGGTKLEIK
For B1, the binding result (in assay [1]; with CD30 fused to rabbit Fc) was “binds” throughout.

B2: T426 cAb (antibody, V domains shown)
VH: EVQLQQSGAELVKPGASVKLSCTASGFNVKDTYVHWVKQRPEQGLEWIGRIDPANSDTKYDSKFQGKATTSADTSSNTAYLQLNSLTSEDTAVYYCASGTDDYYWYFDVWGAGTTVTVSS
VL: DIVLTQSPASLAVSLGQRATISCRASKSVSTPAHTYMHWYQQKPGQPPKLLIYLASNLESGVPARFSGSGSGTDFTLNIHPVEVEDAATYYCQHSRVLPYTFGGGTKLEIK
B2: in the assay with CD30 fused to rabbit Fc, the binding result is on record as “binds”.

B3: T405 cAb (antibody, V domains shown)
VH: QVQLQQIGAELVRPGASVKLSCKASGYTFNNYWINWVKQRPGQGLEWIGNIYPSDSRSNYNQKFKDKATLTVDKPSSTAYMQLSSPTSEDSAVYYCTLGSYWGQGTLVTVSA
VL: not shown
With B3, in assay [1], the binding result is “binds”.

B4: T105 cAb (antibody, V domains shown)
VH: QVTLKESGPGILQPSQTLSLTCSFSGFSLSTSGMGVSWIRQPSGKDLEWLAHIYWDDDKRYNPSLKSRLTISKDTSSNQVFLKITSVDTADTATYYCARRADGLYFYLDVWGAGTTVTVSS
VL: DIVMTQSQKFMSTSVGDRVSVTCKASQNVNTNVAWYQQKPGQSPEALIYSASYRYSGVPDRFTGSGSGTDFTLTISNVQSEDLAEYFCQQYNSYPLTFGSGTKLEIK
For the molecule B4, the binding result (in assay [1]; with CD30 fused to rabbit Fc) was “binds” in each case.

B5: T6 cAb (antibody, V domains shown)
VH: QVQLKESGPGLVTPSQSLSITCTVSGFSLSKYSIHWVRQPPGRGLEWLGMIWGVENTDYNSALKSRLSISKDNSKSQVFLKMNSLQSDDTAMYYCARKDLGLYGMNYWGQGISVTVSA
VL: B4 VL with N30G, E45K, I48F, T63I, D70V, S93T, K107E
Take B5: the binding result in assay [1] is “binds”.

B6: T25 cAb (antibody, V domains shown)
VH: QVTLKESGPGILQPSQTLSLTCSFSGFSLNTSGVGVGWIRQPSGKGLEWLAHIWWDDDERYNPVLKSRLTISKDTSSNQVFLKIANVDTADSATYYCVRSMVAWFPYWGRGTLVTVSA
VL: DIVMSQSPSSLAVSVGEKFTVNCKSSQSLLYSSNQKNFLAWYQQKPGQSPKLLIYWASTRESGVPDRFIGSGSGTDFTLTISSVKAEDLAVYYCQQHYRYPWTFGGGTKLEIK
Turning to B6, the binding result in assay [1] is reported as “binds”.

B7: T107 cAb (antibody, V domains shown)
VH: QVQLQQSGPELVRPGVSVKISCKGSGYSFPDYPLHWVKQSHAKSLEWIGIILTYSGNTNYNQNFKGKATMTVDTSSNTAYLELARLTSEDSAIYYCATFYYGYDGAFDYWGQGTTLTVSS
VL: DIVMTQSPSSLTVTAGEKVTMSCKSSQSLLNSGNQKNYLTWYQQKPGQPPKLLIHWASTRESGVPDRFTGSGSGTDFILTITSVQAEDLAVYYCQNDYTYPLTFGGGTKLELK
Turning to B7, the binding result (in assay [1]; in the assay with CD30 fused to rabbit Fc) was “binds” each time.

B8: T104 cAb (antibody, V domains shown)
VH: QIQLVQSGPELKKPGETVKISCKASGYTFTDYSMHWVKQAPGKGLKWMGWINTETGEPTYADDFKGRFAFSLETSASTAYLQINNLKNEDTATYFCTEGYVFDFWGQGTTLTVSS
VL: DILLTQSPAILSVSPGERVSFSCRASRSIGTSIHWYQQRTNGSPRLLINYASESISGIPSRFSGSGSGTDFTLSINSVESEDIADYYCQQSNSWPLTFGAGTKLELK
For the molecule B8, the binding result in assay [1] was “binds”.

B9: AC10 cAb (antibody, V domains shown)
VH: QIQLQQSGPEVVKPGASVKISCKASGYTFTDYYITWVKQKPGQGLEWIGWIYPGSGNTKYNEKFKGKATLTVDTSSSTAFMQLSSLTSEDTAVYFCANYGNYWFAYWGQGTQVTVSA
VL: DIVLTQSPASLAVSLGQRATISCKASQSVDFDGDSYMNWYQQKPGQPPKVLIYAASNLESGIPARFSGSGSGTDFTLNIHPVEEEDAATYYCQQSNEDPWTFGGGTKLEIK
On to B9, for which the binding result (in assay [1]; in the assay with CD30 fused to rabbit Fc) was “binds” each time.
